Measurements taken from US20030077290A1 (PHADIA, published 2003).

Target: basophil-bound IgE of a grass pollen allergic patient
Assay: cell-based or functional assay

Q: With GKATTEEQKLIEDINASFRAAMATTANVPPADK [rPhl p 6 aa 1-33] as the binder, how does the “reduction of histamine release compared to complete rPhl p 6” value read?
A: ~1000 fold
